Measurements reported in patent CN112480250A (UNIV SHANGHAI JIAOTONG, dated 2021).

Biological target: 重组人OPN-R (OPN-N端蛋白, 重组骨桥蛋白N端活性结构域 osteopontin I17-R167) (human)
Test: ForteBio BLI, biotinylated OPN-R on streptavidin sensor, antibody at 50-300 nmol/L, 1:1 model

Chain of 重组人OPN-R (OPN-N端蛋白, 重组骨桥蛋白N端活性结构域 osteopontin I17-R167) (human) (chain, as listed by the source): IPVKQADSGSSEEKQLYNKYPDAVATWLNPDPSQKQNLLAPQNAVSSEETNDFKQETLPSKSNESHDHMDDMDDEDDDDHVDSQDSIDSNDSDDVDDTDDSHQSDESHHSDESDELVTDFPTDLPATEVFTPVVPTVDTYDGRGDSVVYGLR

- Kd: 4.55 nM
B1: 抗OPN嵌合抗体(抗体72B) (antibody, V domains shown)
VH: EVMLVESGGGLLKPGGSLKLSCAASGFTFSSYAMSWVRQTPEKRLEWVATITSGGSYTNYSDSVKGRITISRDNAKNTLYLQMSSLRSEDTAMYYCAREGPAWFAYWGQGTLVTVSA
VL: DIVMTQTPLSLPVSLGDQASISCRSSQSIVHSNGNTYLEWYLQKPGQSPKLLIYKVSNRFSGVPDRFSGSGSGTDFTLKISRVEAEDLGVYYCFQGSHVPPTFGGGTKLEIKR
notes: Mouse/human IgG1 chimera made by overlap PCR and expressed in HEK293E; also called 72B抗体; OPN-Ab(72B)
